From the RNAGym collection of RNA variant scans (doi:10.1073/pnas.2313332121)

B1: TPR t1 (parent)
chain: GACCAAUCUGCCCUCAGAGCUCGAGAACAUCUUCGGAUGCAGAGGAGGCAGGCUUCGGUGGCGCGAUAGCGCCAACGUCCUCAACCUCCAAUGCAUCCCACCACAUGAUGAUGCCUGAAGAGCCUUGGUUUUUUG

Variants of: B1
Assay: polymerase ribozyme fitness, log enrichment relative to wild type (log ratio); higher = more active; in vitro selection for triplet polymerase activity
Outline: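 Libraries of mutants in each subunit of a heterodimeric triplet polymerase ribozyme were generated by PCR and transcribed. In triplicate, each went through one in vitro selection round: annealing with biotinylated primer, partner subunit and triplets; frozen incubation at −7 °C; gel excision of extended constructs; streptavidin-bead capture; RT-PCR. Fitness, taken from Illumina sequencing of input and output libraries, is the logarithm of a genotype's enrichment over wild-type enrichment, averaged across replicates with inverse-variance weights. The logarithm is base 2, and genotypes needed ≥10 input reads and ≥1 read per output to be kept.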
With C22U C101A the “polymerase ribozyme fitness (log ratio)” value was -4.34. In the case of U21C U55A U78A U131A, the “polymerase ribozyme fitness (log ratio)” value is reported as -0.459. With C22G G61U C124A the “polymerase ribozyme fitness (log ratio)” value was -1.97. With C20G G60A G120C the “polymerase ribozyme fitness (log ratio)” value was -4.56. For C22U A95G, the “polymerase ribozyme fitness (log ratio)” value was -3.7. With U21A G69A U112A the “polymerase ribozyme fitness (log ratio)” value was -3. With C22G A27C U59A A95G the “polymerase ribozyme fitness (log ratio)” value was -3.9. With C22U G45U C72A the “polymerase ribozyme fitness (log ratio)” value was -4.82. In the case of U21A C94G, the “polymerase ribozyme fitness (log ratio)” value is reported as -1.64. For U21A C34A C82A C123U U133G, the “polymerase ribozyme fitness (log ratio)” value was -2.66. For C20A G71A, the “polymerase ribozyme fitness (log ratio)” value was -3.79. With U21G G48C the “polymerase ribozyme fitness (log ratio)” value was -1.56. In the case of C20U G51U G71A, the “polymerase ribozyme fitness (log ratio)” value is reported as -6.53. In the case of U21A A43U G61U C102A, the “polymerase ribozyme fitness (log ratio)” value is reported as -4.93. With U21A C62A C89U G110A U112C the “polymerase ribozyme fitness (log ratio)” value was -5.55. For C20G C56U A84G A111C C115G A121C U132A, the “polymerase ribozyme fitness (log ratio)” value was -3.92. For C22A C49U C73G, the “polymerase ribozyme fitness (log ratio)” value was -4.03. With C20U C56A C73U U129G U130A the “polymerase ribozyme fitness (log ratio)” value was -3. For C22U G48U G71U C94A, the “polymerase ribozyme fitness (log ratio)” value was -6.57. In the case of U21A G42C, the “polymerase ribozyme fitness (log ratio)” value is reported as -1.94. With C20U A26G G60C A90C the “polymerase ribozyme fitness (log ratio)” value was -4.37. With C22G U132A the “polymerase ribozyme fitness (log ratio)” value was -3.21. For U21C G61C, the “polymerase ribozyme fitness (log ratio)” value was -2.11. In the case of C22U G57A G63U, the “polymerase ribozyme fitness (log ratio)” value is reported as -5.87. In the case of U21C C124U, the “polymerase ribozyme fitness (log ratio)” value is reported as 1.84. In the case of C20U G63U G93A C114G, the “polymerase ribozyme fitness (log ratio)” value is reported as -2.6. For C22G C49A G117U, the “polymerase ribozyme fitness (log ratio)” value was -3.11. With C20U C62A C104U A119U C123A G128U the “polymerase ribozyme fitness (log ratio)” value was -2.83. In the case of C20G U116C, the “polymerase ribozyme fitness (log ratio)” value is reported as -3.78. In the case of C22A C56G, the “polymerase ribozyme fitness (log ratio)” value is reported as -4.66. For C20U G61A C88A, the “polymerase ribozyme fitness (log ratio)” value was -1.39. In the case of C22U G45U G48C C102A C124G G128A, the “polymerase ribozyme fitness (log ratio)” value is reported as -6.17. With C20A U59A U78A G117A the “polymerase ribozyme fitness (log ratio)” value was -4.88. For U21G U87C C114U, the “polymerase ribozyme fitness (log ratio)” value was -1.41. For C22A G93U, the “polymerase ribozyme fitness (log ratio)” value was -6.27. In the case of C20G A118U, the “polymerase ribozyme fitness (log ratio)” value is reported as -3.53. In the case of C22A C70U G77C, the “polymerase ribozyme fitness (log ratio)” value is reported as -6.73. With C20G A43U the “polymerase ribozyme fitness (log ratio)” value was -3.89. For C22U A84C, the “polymerase ribozyme fitness (log ratio)” value was -4.07. For U21G A37U C80A A121G, the “polymerase ribozyme fitness (log ratio)” value was -3.51. For U21G A121U, the “polymerase ribozyme fitness (log ratio)” value was 0.0323. In the case of U21C U78C U96C C114A, the “polymerase ribozyme fitness (log ratio)” value is reported as -1.81. In the case of C22U C28U C88G, the “polymerase ribozyme fitness (log ratio)” value is reported as -7.29. For C22A U129G, the “polymerase ribozyme fitness (log ratio)” value was -6.22. In the case of U21A A37U C72U, the “polymerase ribozyme fitness (log ratio)” value is reported as -0.453. For C22A A43U U106C C114U, the “polymerase ribozyme fitness (log ratio)” value was -4.24. For U21C C22A G69C, the “polymerase ribozyme fitness (log ratio)” value was -4.23. In the case of C20G G113A, the “polymerase ribozyme fitness (log ratio)” value is reported as -2.69. For C20G G113C, the “polymerase ribozyme fitness (log ratio)” value was -1.32. With C20G G44C C72G A95G the “polymerase ribozyme fitness (log ratio)” value was -5.22. In the case of U21G A84C, the “polymerase ribozyme fitness (log ratio)” value is reported as -2.02. For C20U G44A A74G U87C U92A G93A C124U, the “polymerase ribozyme fitness (log ratio)” value was -3.64. For C20G C40U G42C G48U U109A, the “polymerase ribozyme fitness (log ratio)” value was -4.15. In the case of C20U C40G A46C G60U A75C, the “polymerase ribozyme fitness (log ratio)” value is reported as -4.1. For C20G C123G, the “polymerase ribozyme fitness (log ratio)” value was -2.95. In the case of U21G C40A U92A, the “polymerase ribozyme fitness (log ratio)” value is reported as -2.98. For U21C U30G C31A G36C C124A, the “polymerase ribozyme fitness (log ratio)” value was -4.94. With C22G G45A C88G the “polymerase ribozyme fitness (log ratio)” value was -4.78. For C20U C70U C102U, the “polymerase ribozyme fitness (log ratio)” value was -3.45. In the case of C22G A46U C76U C98U, the “polymerase ribozyme fitness (log ratio)” value is reported as -5.32. With C20A G110A the “polymerase ribozyme fitness (log ratio)” value was -4.21. For C20U G42A, the “polymerase ribozyme fitness (log ratio)” value was -2.49. With C22G G69A A90U U106A A111U the “polymerase ribozyme fitness (log ratio)” value was -4.92. With C20U C22A G23U G44U G63U A66C C88G A103C U109A the “polymerase ribozyme fitness (log ratio)” value was -6.53. For C22U A46C G61A, the “polymerase ribozyme fitness (log ratio)” value was -4.91. For C22G C73U, the “polymerase ribozyme fitness (log ratio)” value was -2.27. For C20A G113C, the “polymerase ribozyme fitness (log ratio)” value was -4.5. For C22A G44C A46U C101A A121C, the “polymerase ribozyme fitness (log ratio)” value was -4.64. With U21A C22G A27U C56U C114U the “polymerase ribozyme fitness (log ratio)” value was -3.34. In the case of C20A G57C C62U, the “polymerase ribozyme fitness (log ratio)” value is reported as -1.88. For C20G C53U G60A U96A, the “polymerase ribozyme fitness (log ratio)” value was -5.21. In the case of C22G G45U C56G A111U, the “polymerase ribozyme fitness (log ratio)” value is reported as -3.8. For C20G G52A A111U, the “polymerase ribozyme fitness (log ratio)” value was -3.23. With C20U G52A C70U G120A the “polymerase ribozyme fitness (log ratio)” value was -1.85. With C20G G45U G61A the “polymerase ribozyme fitness (log ratio)” value was -4.19. With U21A A43U G60A C115U the “polymerase ribozyme fitness (log ratio)” value was -2.81. With C22U A37U G69U U78C G110U C115A C124G the “polymerase ribozyme fitness (log ratio)” value was -3.86. For C22U G120A, the “polymerase ribozyme fitness (log ratio)” value was -3.35. With C22A G39A the “polymerase ribozyme fitness (log ratio)” value was -5.08. With C22G A50C A75G the “polymerase ribozyme fitness (log ratio)” value was -3.94. In the case of C20U C72U G120C, the “polymerase ribozyme fitness (log ratio)” value is reported as -1.44. With C20U A41G G60C the “polymerase ribozyme fitness (log ratio)” value was -2.04. With C20G U112C the “polymerase ribozyme fitness (log ratio)” value was -2.48.
